Laboratory results published in publication PMC12209146.
Several values for one entry are separate records, joined by “and”; a condition that tells them apart may be missing. Identical values can stand only once.

Biological target: toxin B (TcdB) from Clostridioides difficile VPI 10,463 (Clostridioides difficile VPI 10,463) (UniProt P18177)
Sequence (P18177 whole entry): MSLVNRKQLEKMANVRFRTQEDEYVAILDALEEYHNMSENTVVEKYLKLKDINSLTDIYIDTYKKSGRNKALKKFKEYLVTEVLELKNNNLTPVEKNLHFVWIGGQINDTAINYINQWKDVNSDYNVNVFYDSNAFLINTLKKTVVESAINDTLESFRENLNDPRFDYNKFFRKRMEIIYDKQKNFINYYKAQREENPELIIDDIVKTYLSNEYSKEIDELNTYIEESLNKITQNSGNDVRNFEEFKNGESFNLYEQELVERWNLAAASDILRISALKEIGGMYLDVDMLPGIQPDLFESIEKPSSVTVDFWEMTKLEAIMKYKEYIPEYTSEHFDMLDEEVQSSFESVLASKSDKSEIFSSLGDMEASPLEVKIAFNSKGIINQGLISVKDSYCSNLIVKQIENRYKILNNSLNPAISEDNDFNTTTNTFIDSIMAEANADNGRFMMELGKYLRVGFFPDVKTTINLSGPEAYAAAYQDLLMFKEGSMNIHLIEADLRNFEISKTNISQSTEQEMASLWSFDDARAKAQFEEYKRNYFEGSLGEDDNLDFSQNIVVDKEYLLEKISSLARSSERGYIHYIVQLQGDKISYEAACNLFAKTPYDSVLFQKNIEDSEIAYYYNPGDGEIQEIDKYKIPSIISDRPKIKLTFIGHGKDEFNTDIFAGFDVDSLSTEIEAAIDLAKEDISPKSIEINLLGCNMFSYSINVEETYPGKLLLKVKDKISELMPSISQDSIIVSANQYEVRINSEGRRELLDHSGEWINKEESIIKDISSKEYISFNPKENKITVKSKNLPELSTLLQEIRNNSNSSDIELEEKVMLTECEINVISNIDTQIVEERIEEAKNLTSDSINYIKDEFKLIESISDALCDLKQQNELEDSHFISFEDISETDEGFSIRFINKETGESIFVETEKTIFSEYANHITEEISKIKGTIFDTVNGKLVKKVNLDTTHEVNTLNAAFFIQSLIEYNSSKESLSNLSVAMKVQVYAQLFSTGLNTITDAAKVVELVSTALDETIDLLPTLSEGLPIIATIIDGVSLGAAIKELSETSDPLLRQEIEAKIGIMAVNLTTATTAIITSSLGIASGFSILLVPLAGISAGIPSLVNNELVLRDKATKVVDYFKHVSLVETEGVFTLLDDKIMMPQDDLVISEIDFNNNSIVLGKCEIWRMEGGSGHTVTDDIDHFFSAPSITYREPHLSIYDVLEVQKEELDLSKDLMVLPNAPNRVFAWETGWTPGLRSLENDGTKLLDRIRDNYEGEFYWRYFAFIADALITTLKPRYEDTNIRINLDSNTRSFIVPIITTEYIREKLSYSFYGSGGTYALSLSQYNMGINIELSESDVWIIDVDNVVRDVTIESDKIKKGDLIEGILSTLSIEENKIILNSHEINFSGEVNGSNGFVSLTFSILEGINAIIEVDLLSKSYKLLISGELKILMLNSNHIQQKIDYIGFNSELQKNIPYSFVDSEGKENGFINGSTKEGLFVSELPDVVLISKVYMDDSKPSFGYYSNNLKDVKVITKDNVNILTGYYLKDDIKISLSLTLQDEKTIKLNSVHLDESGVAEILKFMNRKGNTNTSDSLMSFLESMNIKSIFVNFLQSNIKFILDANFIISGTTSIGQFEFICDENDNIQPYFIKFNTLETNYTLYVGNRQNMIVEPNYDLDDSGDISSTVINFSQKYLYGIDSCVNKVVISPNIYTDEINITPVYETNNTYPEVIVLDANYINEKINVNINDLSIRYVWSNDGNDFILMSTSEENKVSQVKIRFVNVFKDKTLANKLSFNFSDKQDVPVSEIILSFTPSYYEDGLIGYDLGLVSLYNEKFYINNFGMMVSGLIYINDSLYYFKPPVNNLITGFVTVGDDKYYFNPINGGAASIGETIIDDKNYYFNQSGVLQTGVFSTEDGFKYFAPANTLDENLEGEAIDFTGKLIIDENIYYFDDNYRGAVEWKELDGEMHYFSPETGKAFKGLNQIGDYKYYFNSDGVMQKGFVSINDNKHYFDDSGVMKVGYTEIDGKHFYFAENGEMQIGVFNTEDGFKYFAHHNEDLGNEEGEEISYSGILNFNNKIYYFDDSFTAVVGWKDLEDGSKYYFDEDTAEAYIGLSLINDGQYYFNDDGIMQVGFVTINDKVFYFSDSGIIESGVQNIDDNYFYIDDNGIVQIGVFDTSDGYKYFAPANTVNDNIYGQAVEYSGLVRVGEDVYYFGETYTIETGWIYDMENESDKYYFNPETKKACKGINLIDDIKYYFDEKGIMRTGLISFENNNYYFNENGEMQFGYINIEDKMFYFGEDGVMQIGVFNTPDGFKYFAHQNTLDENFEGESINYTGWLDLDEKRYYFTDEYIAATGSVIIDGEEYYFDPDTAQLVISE

**Q.** Which other does the source give for KFINIFIHGNKRSIKAI [Angie 5] here?
**A.** 40.9 µM and 46.3 µM
